Reference: patent US20240294624A1, “ANTI-ERYTHROPOIETIN ANTIBODY” (ANDREMACON S.R.L., priority 2021, published 2024)

Columns and labels:
[1] = test system: GBM-CSC cell line; test: MTT cell viability assay; assay type: cell-based, human; conditions: 96 hours, anti-EPO (C4) 6 μg/ml, TMZ 100 μM, FTY720 100 nM
Description: C. Glioblastoma cancer stem cell commercial line (Glioblastoma stem cell line, GBM-CSCs). Anti-EPO treatments were performed on GBM-CSCs, a commercial glioblastoma cancer cell line by CelProgen. As reported in the datasheet, GBM-CSCs have been isolated from human brain cancer tissue. GBM-CSCs were maintained in Celprogen's human glioblastoma cancer stem cell (GBM) complete growth medium and subcultured every 24 to 48 hours on a specific extra-cellular matrix.

[2] = test system: primary anaplastic astrocytoma cells; test: MTT cell viability assay; assay type: cell-based, human; conditions: 96 hours, anti-EPO (C4) 6 μg/ml, TMZ 100 μM, FTY720 100 nM
Description: D. Primary anaplastic astrocytoma cancer stem cells isolated from tumor biopsy of a cohort of patients affected by high grade glioma, in particular, anaplastic astrocytoma (WHO, grade III);

[3] = test system: DLD1; test: MTT cell viability assay; assay type: cell-based, human; conditions: 96 hours, 6 μg/ml
Description: Cell viability was assessed by 3-(4,5-Dimethylthiazol-2-yl)-2,5-Diphenyl-tetrazoliumBromide (MTT) assay, as a function of redox potential (FIGS. 2-7). Cells (5×10^3/well) were seeded and cultured in 96-well plate for 24 h in Basal Medium (BM). Then, culture media were replaced with fresh media containing the specific treatments, or in BM as a control condition (CTR).
Test was performed in triplicate after 96 h of treatment, by replacing culture media with 100 μL of fresh media added with 10 μL of MTT 5 mg/ml in D-PBS. After 4 h of incubation, media were removed and cells were lysed with 100 μL of 2-propanol/formic acid (95:5, by vol) for 10 min. Then, absorbance was read at 570 nm in microplate reader.

[4] = test system: LNCAP; test: MTT cell viability assay; assay type: cell-based, human; conditions: 96 hours, 6 μg/ml
Description: (§1) F. Prostate cancer cell lines (PC-3 and LNCAP); human prostate cancer cells used in cancer research and drug development. […] have been reported to be overexpressed and associated with poor prognosis and reduced survival in prostate cancer patients, and are considered predictive markers of aggressive prostate cancer behavior.

[5] = test system: PC-3; test: MTT cell viability assay; assay type: cell-based, human; conditions: 96 hours, 6 μg/ml
Description: as §1

[6] = test system: MCF-7; test: MTT cell viability assay; assay type: cell-based, human; conditions: 96 hours, 6 μg/ml
Description: G. Breast cancer cell line (MCF-7); breast cancer cells.

[7] = test system: A2780; test: MTT cell viability assay; assay type: cell-based, human; conditions: 96 hours, 6 μg/ml
Description: I. Ovarian cancer cell line (A2780); ovarian cancer cells used in toxicity testing, drug screening and genetic cancer studies.

[8] = test system: A549; test: MTT cell viability assay; assay type: cell-based, human; conditions: 96 hours, 6 μg/ml
Description: J. Lung carcinoma cell line (A549): human lung cancer cells used for drug efficacy screening, biochemical mechanisms and alveolar differentiation;

[9] = test system: HOC84; test: MTT cell viability assay; assay type: cell-based, human; conditions: 96 hours, 6 μg/ml
Description: N. Human ovarian Cell (HOC) cultured in stem cell condition. In particular, HOC84 stem cells were obtained by digestion and cell isolation form a patient-derived xenograft (PDX) model from a high grade serous epithelial ovarian cancer, obtained by serial passages in nude mice.

[10] = test system: human healthy astrocytes; test: MTT cell viability assay; assay type: cell-based; conditions: 96 hours
Description: L. Human healthy Astrocytes is a commercial cell line of human healthy astrocytes

[11] = test system: GBM-ECs; test: Tube formation assay on Matrigel; assay type: cell-based, human; conditions: 48 h
Description: GBM-ECs (1×10^4) were plated on 10 μL of Matrigel in BM, as a Control Condition (CTR, FIG. 8A) or in media containing the anti-EPO (C4) (FIG. 8B), TMZ (FIG. 8C), FTY720 (FIG. 8D), and anti-EPO (C4)+TMZ+FTY720 (FIG. 8E) treatments, as reported above. GBM-ECs were incubated at 37° C., 5% C02, 5% 02. After 48 h, tube-like structure formation was evaluated by phase-contrast microscopy.

[12] = test system: S-ECs; test: Tube formation assay on Matrigel; assay type: cell-based, human; conditions: 48 h
Description: S-ECs (1×10^4) were plated on 10 μL of Matrigel in BM, as a Control Condition (CTR, FIG. 19A) or in media containing the anti-EPO (C4) (FIG. 19B), FTY720 (FIG. 19C), and anti-EPO (C4)+FTY720 (FIG. 19D) treatments, as reported above. S-ECs were incubated at 37° C., 5% C02, 5% 02. After 48 h, tube-like structure formation was evaluated by phase-contrast microscopy. […] Data are expressed as the mean±standard deviation of at least 3 experiments in triplicate. * P<0.05 versus CTR for treatments tested.

[13] = test system: HOC84 stem cells; test: Gene expression by RealTime PCR; assay type: cell-based, human; conditions: 72 h
Description: The analysis was performed by the assessment of gene expression by RealTime PCR on genes related to apoptosis (FIG. 23A), proliferation (FIG. 23B), angiogenesis (FIG. 23C), and inflammation (FIG. 23D). HOC84 stem cells (2×10^5) were seeded into 25 cm2 collagen-coated culture flasks. […] At the end, total RNA was extracted following TRI-Reagent protocol and quantified with NanoDrop 1000 Spectro-photometer (Thermo Fisher Scientific). Reverse transcriptase reaction was executed using TranScriba Kit (A&A Biotechnology), loading 1 μg of RNA (A260/A280>1.8), according to manufacturer's instructions. qRT-PCR was performed using StepOnePlus™ (Thermo Fisher Scientific), 1 μg of cDNA, forward and reverse primers (250 nM each) Titan HotTaq EvaGreen® qPCR Mix (Bioatlas). Data were normalized to 18S expression, used as endogenous control. Relative gene expression was determined using the 2−ΔΔCt method (FIG. 23).

B1: anti-EPO (C4): isolated anti-Erythropoietin monoclonal antibody, VL SEQ ID NO:6, VH SEQ ID NO:14, hybridoma DSM ACC 3370 (antibody, listed as Homo sapiens, V domains shown)
VH: EVKLQESGGGLVQPGGSLKLSCAASGFTFSTYTMSWVRQTPEKRLEWVAYISNGGDRTYYPDTVKGRFTISRDDAKNTLFLQMSSLKSEDTAMYYCARHNITTVPFTMDYWGQGTSVTVSS
VL: DIVLTQSPASLAVSLGQRATISCRASESVDYYGTGLMQWYQQRPGQPPKLLIYGASNVGSGVPARFSGSGSGTDFSLNIHPVEGDDIAMYFCQQTRKVPSTFGGGTKLEIK
modifications: VH amino acid sequence; VL amino acid sequence
B1 was tested, and the “cells initially seeded dead” value [1] was roughly 79%, the “cells initially seeded dead” value [2] was roughly 66% and the “cells initially plated dead” value [3] was 73%. The “cells initially plated dead” value [4] was 74%, the “cells initially plated dead” value [5] was 71% and the “cells initially plated dead” value [6] was 71%. The “cells initially plated dead” value [7] was 63%, the “cells initially plated dead” value [8] was 63% and the “cells initially plated dead” value [9] was 68%. The “effect on human healthy astrocyte viability” value [10] was “did not affected human healthy astrocyte viability”, the “decrease of total length of formed tubes” value [11] was 70% and the “formation of tubular-like structures” value ([11]; phase-contrast microscopy) was “able to block the formation of tubular-like structures”. For the same molecule, the “decrease of total length of formed tubes” value [12] was 65%, the “formation of tubular-like structures” value [12] was “able to block the formation of tubular-like structures” and the “expression of genes related to angiogenesis” value [13] was “significantly inhibits proliferation and angiogenesis”. The “expression of genes related to apoptosis” value [13] was “increases apotosis and inflammation” and the “expression of genes related to inflammation” value [13] was “higher expressed”.
